Reference: the DeepSol protein solubility set

Assay: soluble on expression in E. coli; label from the status in PepcDB or PDB records

| Sequence | soluble on expression in E. coli |
| --- | --- |
| MATFPHFGTAAIHVGQEPEQWDMNQVVPPISLSSTYKQDNPGEPKGHDYSRAGNPTRDVLQKNLAALEDAKHCQVFSSGLAATSAIINLLKYGDHIVCSDDVYGGTQRYIRRVAVPNHGLEVDSVDLTDVQNLEKAIKPNTKMVWFESPSNPLLKVVDIAAVVQTAKKANPEIVVVVDNTFMSPYFQRPISLGADVVVHSITKYINGHSDVVMGAVITDNDEFQQHLFFMQLAVGAVPSPFDCFLVNRGLKTLHIRMRAHYENALAVAKYLEANDRIESVLYPALPSHPQHEVHEKQTKGMSGMISFYLKGELQESRAFLSALKVFTLAESLGGYESLAELPSIMTHASVPAETRIVLGITDNLIRISVGIEDLDDLVADLDQALKIAIPKV | not soluble |
| MATKKDVHDLFLNHVNSNAVKTRKMMGEYIIYYDSVVIGGLYDNRLLVKATKSVRHQLQDNTLVSPYPGAKEMILIPDITEAINLTNLFELIKNDLKN | not soluble |
| MATLKDIAIEAGVSLATVSRVLNDDPTLNVKEETKHRILEIAEKLEYKTSSARKLQTGAVNQHHILAIYSYQQELEINDPYYLAIRHGIETQCEKLGIELTNCYEHSGLPDIKNVTGILIVGKPTPALRAAASALTDNICFIDFHEPGSGYDAVDIDLARISKEIIDFYINQGVNRIGFIGGEDEPGKADIREVAFAEYGRLKQVVREEDIWRGGFSSSSGYELAKQMLAREDYPKALFVASDSIAIGVLRAIHERGLNIPQDISLISVNDIPTARFTFPPLSTVRIHSEMMGSQGVNLVYEKARDGRALPLLVFVPSKLKLRGTTR | soluble |
| MATMSRRWNYFTPHYNDEGSIDVLDGKPPYIDLFDPLKQPLFQHLRSMHTEFSTTTADVNTTWEDASSTSSSNKGATIWFNEDAIDKSSRHEIGQSTVTHESEDDRFSFFNAVCTRLNSLQETKNSSETEEHAESPRKEKSSTPYGTDGFAPPPRSTQTNTLKVSNLPKRFESLYKKKRQQVATSDSSGFGSNASDFWSFERYGKSNQGTLERPNRLFTGTNNGFSTLQPKRRGSEAPKMTVELRYENDVPMVAKISANHAQSVTLRYFRHLFGLHYTDNCR | not soluble |
| MATNFLVGEKIWFHKFKYGDAERRFYEQMNGPVAGASLQEASMILHDIARARENIPKSLAGSLGPGASSGPSGDHSELVVRIASLEVDNQRDLAERAGEELARPLGHSPADPAHVSHAPSGAPGQEASHTSRG | soluble |
| MATNWGSLLQDKQQLEELARQAVDRALAEGVLLRTSQEPTSSEVVSYAPFTLFPSLVPSALLEQAYAVQMDFNLLVDAVSQNAAFLEQTLSSTIKQDDFTARLFDIHKQVLKEGIAQTVFLGLNRSDYMFQRSADGSPALKQIEINTISASFGGLASRTPAVHRHVLSVLSKTKEAGKILSNNPSKGLALGIAKAWELYGSPNALVLLIAQEKERNIFDQRAIENELLARNIHVIRRTFEDISEKGSLDQDRRLFVDGQEIAVVYFRDGYMPRQYSLQNWEARLLLERSHAAKCPDIATQLAGTKKVQQELSRPGMLEMLLPGQPEAVARLRATFAGLYSLDVGEEGDQAIAEALAAPSRFVLKPQREGGGNNLYGEEMVQALKQLKDSEERASYILMEKIEPEPFENCLLRPGSPARVVQCISELGIFGVYVRQEKTLVMNKHVGHLLRTKAIEHADGGVAAGVAVLDNPYPV | soluble |
| MATTKPYRVLLYYMYTTIENPEEFAAEHLEFCNSLELKGRILVAKEGINGTCSGTVEQTEKYMEAMNNDPRFDGIVFKIDEADGHAFKKMHVRPRPELVTLRLEDDINPHEITGKYLEPKDFYEAMKQEDTVIIDARNDYEFDLGHFKGAIKPDIESFRELPDWIRENKEVLEGKKILTYCTGGIRCEKFSGWLVREGYEDVSQLHGGIVTYGKDPEVQGELWDGQCYVFDERIAVPVNQKEHVIVGKDHFTGEPCERYVNCSNPECNKKILCSEENEAKYLRACSHECRVSPRNRYVIQHELTEEQVAAALEQIEAGKLEHHHHHH | soluble |
| MATVHKVGDSTGWTTLVPYDYAKWASSNKFHVGDSLLFNYNNKFHNVLQVDQEQFKSCNSSSPAASYTSGADSIPLKRPGTFYFLCGIPGHCQLGQKVEIKVDPGSSSA | soluble |
| MATVLIVGRPNVGKSTLFNKLVKKKKAIVEDEEGVTRDPVQDTVEWYGKTFKLVDTCGVFDNPQDIISQKMKEVTLNMIREADLVLFVVDGKRGITKEDESLADFLRKSTVDTILVANKAENLREFEREVKPELYSLGFGEPIPVSAEHNINLDTMLETIIKKLEEKGLDLESKPEITDAIKVAIVGRPNVGKSTLFNAILNKERALVSPIPGTTRDPVDDEVFIDGRKYVFVDTAGLRRKSRVEPRTVEKYSNYRVVDSIEKADVVVIVLDATQGITRQDQRMAGLMERRGRASVVVFNKWDLVVHREKRYDEFTKLFREKLYFIDYSPLIFTSADKGWNIDRMIDAMNLAYASYTTKVPSSAINSALQKVLAFTNLPRGLKIFFGVQVDIKPPTFLFFVNSIEKVKNPQKIFLRKLIRDYVFPFEGSPIFLKFKRSR | soluble |
| MATYRQRGKKKLWDYRIFNEKSELVASGSGFKTKREAMNEAMRIEQQKLLVNSISSDITLYDLWFEWYSLIIKPSNLAETTKNKYFTRGSVIRKLFGNQKVNKIKHSAYQRKLNTYAEKYTKNHVRRLNSDIKKAIQFAKRDGVLLSDFTDGVVIAGRKFVKDADDKYLHSIFDYKKVISYLENNLDYSNSIVYYLLLVLFKTGLRVGEALALTWDDVNFEDLEIKTYRRFSGDKGTFSPPKTKTSIRTIPISQSLALILRDLKDDQQVMLKNLKIVNMNNQIFYDYRYGVSTNSAINKSLKNVLKILNINSKMTATGARHTYGSYLLAKGVDIWVVARLMGHKDITQLLETYGHVLTEVINKEYETVRSLVS | not soluble |
| MAVGAPFLYRYSLYNCAYVILNGKVLGIVPKSYIPNYSEFYEKRWFTEGFNIKGLNVDLDFQKEVPFGTDLIFSFKNLKVGFEICEDLWVTIPPSSNLALMGANLICNLSASNELVSKSSYRKSLVQNQSARTMCSYIYSSAGVHESTTDLLFSGHMIIAENGTIIKENNRFKRENDLLTGIVDLFKLDAERIKNISFRNSTFNENNEPRFIPFNLENTEIKNFDREIDKHPFLPKSQYAMEARCEEILNIQAAALAKRLEHTNLKKAVIGISGGLDSTLALLVVVKTFDMLNIPRENIITITMPGFGTTDRTYNNAVTLCKELHCDFREINIVNAALQHFEDIGHDKDIHDVTYENVQARERTQILMDLANKEGGLLIGTGDLSELALGWCTYNGDHMSMYSVNCSIPKTLVRFLVNYFANHEISNDAKEALLDILDTPVSPELEHHHHHH | soluble |
| MAVSAYFHIPFCAHICHYCDFNKVFAAGQPIDDYLRAMDKEMAWTAAEFGSQLKTLFIGGGTPTVLEPAQLGCLLASIHRHFQFDPQTAEFTVEANPDGLTKEKLAILRDAGVNRLSLGVQTFDDQLLQTIGRTHRRGDVIRAVALAREVGFQNISIDVMYGLPGQTLEQFTADLEAAFSLHVPHLSAYSLILEPRTIFYNEWRKGRLRLPGEEMEAEMYEAAMEQMAAAGYRQYEISNYALPGFESRHNLTYWNNEEYYGIGAGAHSYIDGVRRANIGPIRHYISAIERGQWPHRDVRRLTTREQMEEEMFLGLRKTEGVSKACFRQKFGRDLHDIFGAAIRREIENGRLEETETHIRLTKRGKLLGNEVFAAFLGEM | not soluble |
| MAWPDLDPPRLAERPLSLQEALFVLEAPPEALPALAEAAIRVKEYFFGRRLKLVRLLNVKSGFCPEDCAYCAQSARSQAAIARYPLLSLEEILERAEEAQRLSARRFCLVAALRGPTPKVLERLGEAAQAIKARFPLELCASLGLLEEGMAEALKAAGFDYYNHNLNTVPSLYPRIATTHTYQDRLWTLKRAREAGLKLCSGVILGMGEGPKEVYEMALALRELGVESLPVNFLLPIPGTPLGDGRTVAGLTPERALKALILFRLLNPKAELRASAGRERYLGPYEPLAFRMVNSIFLQGYLTQPGSPWERDRALWESLDLDVEEGACG | soluble |
| MAYDGLFTKKMVESLQFLTTGRVHKINQPDNDTILMVVRQNRQNHQLLLSIHPNFSRLQLTTKKYDNPFNPPMFARVFRKHLEGGIIESIKQIGNDRRIEIDIKSKDEIGDTIYRTVILEIMGKHSNLILVDENRKIIEGFKHLTPNTNHYRTVMPGFNYEAPPTQHKINPYDITGAEVLKYIDFNAGNIAKQLLNQFEGFSPLITNEIVSRRQFMTSSTLPEAFDEVMAETKLPPTPIFHKNHETGKEDFYFIKLNQFNDDTVTYDSLNDLLDRFYDARGERERVKQRANDLVRFVQQQLHKYQNKLAKLIEEYEQSKNKDTEQLYGELITANIYRIKQGDKEVTALNYYTNEEVVIPLNPTKSPSANAQYYYKQYNRMKTRERELQHQIQLTKDNIDYFSTIEQQLHHISVHDIDEIRDELAEQGFMKQRKNQTKKKKAQ | not soluble |
| MAYFMTDVTKENRQDECRFSPNKEATEEDLLRIGVECTKVNFDDEHVQEDLDRLIKKYDMNFHDEVHICRATMPNFDEKLDIFFEEHLHDDAELRVIKHGVGFFDVRTKDEAWIRIPVRRGDFVFLPAGIYHRFTTDPSEDVVALRLFRNNPKWTAFNRKADGDEQRVRQQYLNDISA | soluble |
| MAYFTAKRASSMGASTVPSGNDHLLEALTLCDCILSRYKRCGVQLNDAEAAAFANLQQRISSISGHAADAACPAGATRKQSQELGLHEYAQLAQRCLIFQNPLAQIVATINEEFSKLVSCSVRTHYANTNDAVLCDPVHDTVATIDTSTPIGRCAKTKTTVTISDTVYIPLCYNSHVVGCLEVESTAIDTSTPFFGYLLQVAALTLQNATSIDTLRWETRKAEAMVGMATRLARDTLEESVLVQSIINTAKTLTESDRCSIFLVKADGSLEAHFEDGNVVVLPAGTGIAGHVAESGAVVNIPNAYEDDRFHRSVDKVTGYHTRTILCLPIAFEGTIVAVAQLINKLDMVTQSGQRLPRVFGRRDEELFETFSMFAAASLRNCRINETLLKEKKKSDAILDVVALLSNTDIRDVDSIVRHVLHGAKKLLNADRSSMFLLDKERNELYSKMADSANEIRFPCGQGIAGTVAESGVGENIMDAYADSRFNSAVDRQLGYRTQSILCEPITLNGEVLAVVQLVNKLGDDGSVTCFTPTDQETFKVFSLFAGISINNSHLLEFAVNAGREAMTLNLQRNSITAQRAPKSVKVIAVTPEEREAVMSIDFGGAYDFTSPGFNLFEVREKYSEPMDAAAGVVYNLLWNSGLPEKFGCREQTLLNFILQCRRRYRRVPYHNFYHVVDVCQTLHTYLYTGKASELLTELECYVLLVTALVHDLDHMGVNNSFYLKTDSPLGILSSASGNNSVLEVHHCSLAIEILSDPAADVFEGLSGQDVAYAYRALIDCVLATDMARHGDLSRVFDDMAKAGYDSNDQESRRLVMETLIKAGDVSNVTKPFETSRMWAMAVTEEFYRQGDMEKEKGVEVLPMFDRSKNNELARGQIGFIDFVAGKFFRDIVGNLFHGMQWCVDTVNSNRAKWQEILDGRRDSIRPSIV | not soluble |
| MAYKFLSEDWIKAYAEEWNKNEKLMNDLKNFSASIKYYVEGKENDAVELIIEKGKAVSAGKADPNKRYDFELWASLENWKKLATGEMGPRAAMLTKRLKFKGSMITAMKYMGAFEESLKMMGRVPTVWDV | not soluble |
| MAYVPTLIANNVLNRAFAEKYRISPMKLQKILYFAAAEYQKNTGKSLFSERFETWQYGPVLRSVYSEFRPFSRDFITRFAKDAENQSHMINESADPALQRVLDTVWSATKGHSAVDLSRITHMENSAWDKSFQNEQPFLSSDHIAADDTYRRELGLTTA | not soluble |
| MCANIGVDPLASNKGFWAELLGIGDFYYELGVQIIEVCMLTRSHNGGLISLQELCNHLRQRRKKDREAVTEDDCLRAISKLKVLGSGFEVITIGKKKLVRSVPTELNKDHNQILELAQGQGFVIVEEVQRRLSWTSGRVIDALETLLEEGLAMIDNGHKDGKCRYWFPCVSSVYSSIGSDT | soluble |
